Measured values from patent US20260337282 (published 2026).

Legend:
Experiment in all cases: FACS
mouse CCR8 [1] = biological target: T1, mouse CCR8 (mouse)
T1 chain: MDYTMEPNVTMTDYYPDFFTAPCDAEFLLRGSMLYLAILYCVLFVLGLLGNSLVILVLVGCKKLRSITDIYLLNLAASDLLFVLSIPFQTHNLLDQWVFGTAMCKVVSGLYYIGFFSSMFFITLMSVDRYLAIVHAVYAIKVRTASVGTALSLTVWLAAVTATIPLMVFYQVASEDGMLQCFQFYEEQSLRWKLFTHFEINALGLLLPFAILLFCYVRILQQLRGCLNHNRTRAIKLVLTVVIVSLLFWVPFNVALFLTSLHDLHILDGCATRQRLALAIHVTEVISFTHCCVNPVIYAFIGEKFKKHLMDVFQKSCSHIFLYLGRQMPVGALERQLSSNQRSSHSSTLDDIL

cynomolgus CCR8 = biological target: T2, cynomolgus CCR8 (cynomolgus)
T2 chain: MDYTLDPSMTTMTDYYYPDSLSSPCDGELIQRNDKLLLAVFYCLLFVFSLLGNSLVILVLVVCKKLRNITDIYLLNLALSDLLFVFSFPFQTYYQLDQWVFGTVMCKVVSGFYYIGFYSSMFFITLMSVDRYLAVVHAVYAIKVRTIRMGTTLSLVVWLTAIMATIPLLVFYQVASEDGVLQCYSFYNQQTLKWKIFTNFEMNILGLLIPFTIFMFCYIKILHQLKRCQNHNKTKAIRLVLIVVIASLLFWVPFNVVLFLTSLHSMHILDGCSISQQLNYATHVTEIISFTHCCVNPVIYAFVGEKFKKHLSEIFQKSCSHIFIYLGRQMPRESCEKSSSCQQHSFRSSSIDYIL

mouse CCR8 [2] = biological target: T1, mouse CCR8
human CCR8 = human CCR8 (human)
human CCR8 (human), sequence (chain, as listed by the source): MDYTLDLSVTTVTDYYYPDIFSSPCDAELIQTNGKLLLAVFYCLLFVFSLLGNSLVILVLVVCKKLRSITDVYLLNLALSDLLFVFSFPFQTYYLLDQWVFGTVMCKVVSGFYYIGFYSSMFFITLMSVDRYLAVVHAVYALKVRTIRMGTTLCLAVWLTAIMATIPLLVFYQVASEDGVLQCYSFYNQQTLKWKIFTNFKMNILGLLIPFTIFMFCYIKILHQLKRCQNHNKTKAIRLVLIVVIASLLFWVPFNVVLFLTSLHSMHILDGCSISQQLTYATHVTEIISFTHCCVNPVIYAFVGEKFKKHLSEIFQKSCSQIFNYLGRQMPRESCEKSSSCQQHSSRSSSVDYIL

B1: 7B16 analog (antibody, V domains shown)
VH: EVQLVESGGGLVQPGGSLKLSCAASGFTFNTYAMNWVRQASGKGLEWVGRIRSKSNNYATYYADSVKDRFTISRDDSKNTAYLQMNSLKTEDTAVYYCVRGLLRYRFFDVWGQGTTVTVSS
VL: DIVMTQSPLSLPVTPGEPASISCRSSKSLLHSNGNTYLYWFLQKPGQSPQLLIYRMSNLASGVPDRFSGSGSGTDFTLKISRVEAEDVGVYYCMQHLEYPFTFGGGTKVEIK
binding result (mouse CCR8 [1]): no binding
binding result (cynomolgus CCR8): no binding
EC50 (mouse CCR8 [2]): > 10 µg/mL
EC50 (human CCR8): 0.039 µg/mL
